For experiment [1], the target named is T1, recombinant, GPI-linked human FcRn on cell line NS0 HuFcRn (memb), clone 7-3 (human, UniProt P55899 24-297; P61769 21-119).
T1 construct: Expressed from pDL208 on the surface of NS0 cells; also called human neonatal Fc receptor; not shown: human c-myc decapeptide flanked by linker peptides, then GPI linkage signal of human decay accelerating factor (vector p)
As to the kind of experiment: competition FACS vs biotinylated human IgG on NS0 cells expressing human FcRn, FBB pH 6.0.

In experiment [2] the target is T1, recombinant, GPI-linked human FcRn on …. The experiment in a line: IC50 of wild-type / IC50 of this antibody, same assay.
Experiment [3] has as its target T2, recombinant, GPI-linked rhesus FcRn on cell line NS0 RhFcRn, clone R-3 (rhesus, UniProt H9Z6D2 24-297; Q6V7J5 21-119, GPI-linked).
T2 construct: Expressed from pDL410 on the surface of NS0 cells; not shown: human c-myc decapeptide flanked by linker peptides, then GPI linkage signal of human decay accelerating factor (vector p)
As to the kind of experiment: competition FACS vs biotinylated human IgG on NS0 cells expressing rhesus FcRn, FBB pH 6.0.

The target in experiment [4] is T2, recombinant, GPI-linked rhesus FcRn on …. The experiment in a line: IC50 of wild-type / IC50 of this antibody, same assay.

The term IC50 denotes the concentration at which inhibition is half-maximal.

B1: Hu1D10-IgG3 M428L (antibody)
heavy: QVQLQESGPGLVKPSETLSLTCTVSGFSLTNYGVHWVRQSPGKGLEWIGVKWSGGSTEYNAAFISRLTISKDTSKNQVSLKLNSLTAADTAVYYCARNDRYAMDYWGQGTLVTVSSASTKGPSVFPLAPCSRSTSGGTAALGCLVKDYFPEPVTVSWNSGALTSGVHTFPAVLQSSGLYSLSSVVTVPSSSLGTQTYTCNVNHKPSNTKVDKRVELKTPLGDTTHTCPRCPEPKSCDTPPPCPRCPEPKSCDTPPPCPRCPEPKSCDTPPPCPRCPAPELLGGPSVFLFPPKPKDTLMISRTPEVTCVVVDVSHEDPEVQFKWYVDGVEVHNAKTKLREEQYNSTFRVVSVLTVLHQDWLNGKEYKCKVSNKALPAPIEKTISKAKGQPREPQVYTLPPSREEMTKNQVSLTCLVKGFYPSDIAVEWESNGQPENNYNTTPPMLDSDGSFFLYSKLTVDKSRWQQGNIFSCSVLHEALHNRYTQKSLSLSPGK
light: DIQMTQSPSSLSASVGDRVTITCRASENIYSYLAWYQQKPGKAPKLLVSNAKTLAEGVPSRFSGSGSGKQFTLTISSLQPEDFATYYCQHHYGNSYPFGQGTKLEIKRTVAAPSVFIFPPSDEQLKSGTASVVCLLNNFYPREAKVQWKVDNALQSGNSQESVTEQDSKDSTYSLSSTLTLSKADYEKHKVYACEVTHQGLSSPVTKSFNRGEC
Turning to B1, the IC50 in experiment [1] was determined as 2.29 mg/L; in experiment [3], 3.03 mg/L. For the same molecule, the “Relative Binding” value amounted to 6.3 ratio in experiment [2] and 4.6 ratio in experiment [4].

For the origin of these results see patent publication US20050276799A1 (PDL BIOPHARMA, published 2005).
